Measured values as given in patent US9205136B2, “Human aminoacyl-tRNA synthetase polypeptides useful for the regulation of angiogenesis” (THE SCRIPPS RESEARCH INSTITUTE, priority 2000, dated 2015).

Legend:
PMNs [1] = assay: 125I-human mini TyrRS binding and competition assay on PMNs; conditions: for inhibition of 125I-mini TyrRS binding to PMNs by unlabeled ligand: 10 nM 125I-mini TyrRS, 200-fold molar excess of unlabeled ligand, on ice 2 hours
Protocol: The interaction of human mini TyrRS and PMNs was examined in binding studies using radioiodinated TyrRS molecules (Moser et al., 1993, J. Biol. Chem. 268:7125-28). Custom radioiodination of mini TyrRS with was performed by Research & Diagnostic Antibody (Richmond, Calif.). In the binding assays, 2×10^6 PMNs were first suspended in 120 μl of RPMI-1640 medium containing 20 mM Hepes (pH 7.4) and 10 mg/ml bovine serum albumin. […] Following incubation, cells were separated from unbound radioactivity by centrifugation at approximately 8000×g for 2 minutes through 500 μL, of a 10% sucrose/phosphate-buffered saline (PBS) cushion. The supernatant was aspirated, and the cell sediment was resuspended using EcoLite (ICN Biomedicals, Irvine, Calif.) and analyzed in a scintillation counter.
Following incubation, cells were separated from unbound radioactivity as described herein.

chick CAM = assay: Inhibition of VEGF165-induced or mini TyrRS-induced angiogenesis in chick CAM; format: in vivo; conditions: 3 μg inhibitor
Protocol: In vivo angiogenesis assays were conducted in chick chorioallantoic membrane (CAM) (Nicolaou et al., 1998, Bioorg. Med. Chem. 6:1185-208). Ten-day-old chick embryos were purchased from Mcintyre Poultry (Lakeside, Calif.) and were incubated at 37° C. and 70% humidity. A small hole was made with a small crafts drill (Dremel, Emerson Electric, Racine, Wis.) directly over the air sac at the end of the egg. The embryos were candled to determine a location to drill a second hole directly over embryonic blood vessels. […] A window was cut in the eggshell over the dropped CAM, exposing the CAM to direct access for experimental manipulation. Cortisone acetate-treated 5 mm filter disks were soaked with a particular protein sample (25 ng of VEGF165 or 250 ng of a given TyrRS molecule) and the filter disks added directly to the CAMs, which were relatively devoid of preexisting blood vessels. The windows were sealed with sterile tape and incubated at 37° C. At 0, 24, and 48 hours following incubation, 3 μg of […] (IP-10) (R & D Systems, Minneapolis, Minn.) was topically applied to the filter disks. After 72 hours, the CAM tissue associated with the filter disk was harvested and quantified using a stereomicroscope. Angiogenesis was assessed as the number of visible blood vessel branch points within the defined area of the filter disks. Each determination shown in FIG. 17 represents the mean from 5-8 embryos.
The angiostatic activity of human full-length TrpRS and human mini TrpRS was also analyzed in in vivo angiogenesis assays conducted in chick CAM. In vivo angiogenesis assays were performed as described in Example 12 with 3 μg of full-length TrpRS or mini TrpRS added to VEGF165-induced or mini TyrRS-induced CAM tissue.

PMNs [2] = assay: PMN chemotaxis assay (ChemoTX microchemotaxis chamber); format: cell-based, human; conditions: for PMN migration induced by synthetic peptide: assay as in Example 2; for PMN chemotaxis (PMN migration): sample proteins 1 nM, 45 min
Protocol: (§1) Cells for the various cytokine assays described were prepared from acid citrate dextrose-treated blood of normal healthy volunteers. Human PMNs were isolated from the blood by centrifugation (700×g) over Histopaque 1077 and 1119 (Sigma). […] This procedure was repeated twice. Human MPs were isolated by centrifugation on Histopaque 1077 (Sigma). The mononuclear fraction was obtained, washed twice in Hanks' balanced salt solution, resuspended in RPMI-1640 medium (Sigma) containing 10% heat-inactivated fetal bovine serum (Sigma), plated in tissue culture flasks, and incubated in a 6% CO2 incubator at 37° C. for 1-2 hours (Kumagai et al., 1979, J. Immunol. Methods 29:17-25). Nonadherent cells were removed by washing the flasks three times with Hanks' balanced salt solution, and adherent cells were harvested by incubation with calcium-magnesium free phosphate-buffered saline containing 2 mM EDTA for 15 minutes at 4° C., followed by extensive washing.
PMN chemotaxis assays were performed in a ChemoTX microchemotaxis chamber (described herein). Sample proteins (1 nM) were added to the lower compartment of chemotaxis chambers, and 10^4 PMNs were added to the upper compartment. Chambers were incubated for 45 min, and migrating cells were counted in HPFs. Each determination shown in FIG. 2 represents the average of nine HPF measurements.

MPs = assay: MP chemotaxis assay (ChemoTX microchemotaxis chamber); format: cell-based, human; conditions: for MP migration induced by synthetic peptide: assay as in Example 2; for MP chemotaxis (MP migration): sample proteins 1 nM, 3 hours
Protocol: as §1
MP chemotaxis assays were performed in a ChemoTX microchemotaxis chamber (Neuro Probe, Gaithersburg, Md.) containing polycarbonate filters (5 μm pores) with polyvinylpyrrolidone (PVP). MPs were suspended in RPMI-1640 medium containing 1% heat-inactivated fetal bovine serum, and 10^4 cells were added to the upper chamber. Sample proteins (1 nM) were added to the lower compartment of chemotaxis chambers, and the chambers were incubated for 3 hours. After incubation, nonmigrating cells were removed, membranes were fixed in methanol, and migrating cells were visualized with the HEMACOLOR™ stain set (EM Diagnostic Systems, Gibbstown, N.J.). Migrating cells were counted in high-power fields (HPFs). Each determination shown in FIG. 2 represents the average of nine HPF measurements.

In the case of “Gro: human recombinant Gro (Biosource International), α-chemokine”, the “inhibition of 125I-mini TyrRS binding to PMNs by unlabeled ligand” value (from here on “inhibition of 125I-mini TyrRS binding”) (PMNs [1]) is reported as “did not significantly inhibit the binding”.

“IP-10: angiostatic α-chemokine (R & D Systems)” was tested, and the “inhibition of VEGF165-induced angiogenesis in chick CAM” value (chick CAM; 25 ng VEGF165, 72 hours) was “inhibited” and the “inhibition of mini TyrRS-induced angiogenesis in chick CAM” value (chick CAM; 250 ng mini TyrRS, 72 hours) was “inhibited”.

“R-V-G-F-I-Q-K (RVGFIQK; listed as Saccharomyces cerevisiae) [synthetic peptide derived from S. cerevisiae Arc1p, reference compound]” was tested, and the “PMN migration induced by synthetic peptide” value (“PMN migration induced” for short) (PMNs [2]; synthetic heptapeptides) was “neither peptide induced PMN or MP migration” and the “MP migration induced by synthetic peptide” value (“MP migration induced” below) (MPs; synthetic heptapeptides) was “neither peptide induced PMN or MP migration”.

With “R-V-G-K-I-I-T (RVGKIIT; listed as Homo sapiens) [TyrRS carboxyl-terminal domain peptide, synthetic peptide derived from the TyrRS carboxyl-terminal domain]” the “dose-dependence of peptide effect on PMN migration” value (PMNs [2]; synthetic heptapeptides) was “dose-dependence similar to that of the mature EMAP II peptide”, the “PMN migration induced” value (PMNs [2]; synthetic heptapeptides) was “induced PMN migration” and the “dose-dependence of peptide effect on MP migration” value (MPs; synthetic heptapeptides) was “dose-dependence similar to that of the mature EMAP II peptide”. The “MP migration induced” value (MPs; synthetic heptapeptides) was “MP migration”.

“R-V-G-R-I-I-K (RVGRIIK; Caenorhabditis elegans) [synthetic peptide derived from C. elegans MetRS, reference compound]” was tested, and the “PMN migration induced” value (PMNs [2]; synthetic heptapeptides) was “neither peptide induced PMN or MP migration” and the “MP migration induced” value (MPs; synthetic heptapeptides) was “neither peptide induced PMN or MP migration”.

B1: extended carboxyl-terminal domain: recombinant residues 344-528 of human full-length TyrRS (protein, UniProt P54577 344-528, looked up, fragment)
chain: PSKQKPMAKGPAKNSEPEEVIPSRLDIRVGKIITVEKHPDADSLYVEKIDVGEAEPRTVVSGLVQFVPKEELQDRLVVVLCNLKPQKMRGVESQGMLLCASIEGINRQVEPLDPPAGSAPGEHVFVKGYEKGQPDEELKPKKKVFEKLQADFKISEECIAQWKQTNFMTKLGSISCKSLKGGNIS
With B1 the “PMN chemotaxis (PMN migration)” value (PMNs [2]) was “capable of can inducing both MP and PMN chemotaxis” and the “MP chemotaxis (MP migration)” value (MPs) was “capable of can inducing both MP and PMN chemotaxis”.

B2: EMAP II: human mature endothelial monocyte-activating polypeptide II, C-terminal His6 tag (protein)
chain: ANNDAVLKRLEQKGAEADQIIEYLKQQVSLLKEKAILQATLREEKKLRVENAKLKKEIEELKQELIQAEIQNGVKQIPFPSGTPLHANSMVSENVIQSTAVTTVSSGTKEQIKGGTGDEKKAKEKIEKKGEKKEKKQQSIAGSADSKPIDVSRLDLRIGCIITARKHPDADSLYVEEVDVGEIAPRTVVSGLVNHVPLEQMQNRMVILLCNLKPAKMRGVLSQAMVMCASSPEKIEILAPPNGSVPGDRITFDAFPGEPDKELNPKKKIWEQIQPDLHTNDECVATYKGVPFEVKGKGVCRAQTMSNSGIKHHHHHH
B2 was tested, and the “concentration dependence of PMN migration” value (PMNs [2]) was “bell-shaped concentration dependence”, the “PMN chemotaxis (PMN migration)” value (PMNs [2]) was “induction of PMN migration” and the “inhibition of 125I-mini TyrRS binding” value (PMNs [1]) was “neither the TyrRS carboxyl-terminal domain nor EMAP II inhibited”.

B3: S. cerevisiae TyrRS: S. cerevisiae tyrosyl-tRNA synthetase, NYR in place of ELR (protein)
chain: MSSAATVDPNEAFGLITKNLQEVLNPQIIKDVLEVQKRHLKLYWGTAPTGRPHCGYFVPMTKLADFLKAGCEVTVLLADLHAFLDNMKAPLEVVNYRAKYYELTIKAILRSINVPIEKLKFVVGSSYQLTPDYTMDIFRLSNIVSQNDAKRAGADVVKQVANPLLSGLIYPLMQALDEQFLDVDCQFGGVDQRKIFVLAEENLPSLGYKKRAHLMNPMVPGLAQGGKMSASDPNSKIDLLEEPKQVKKKINSAFCSPGNVEENGLLSFVQYVIAPIQELKFGTNHFEFFIDRPEKFGGPITYKSFEEMKLAFKEEKLSPPDLKIGVADAINELLEPIRQEFANNKEFQEASEKGYPVATPQKSKKAKKPKNKGTKYPGATKTNEIATKLEETKL
B3 was tested, and the “PMN chemotaxis over a concentration series” value (PMNs [2]; 0.1, 1, 10, 100, and 1000 nM) was “No significant chemotaxis”, the “PMN chemotaxis (PMN migration)” value (PMNs [2]) was “no chemotaxis was observed” and the “inhibition of 125I-mini TyrRS binding” value (PMNs [1]) was “inhibited the binding”. The “dissociation constant relative to that for human mini TyrRS” value (PMNs [1]; PMN binding competition) was no more than 200 fold.

B4: NAP-2: human recombinant NAP-2 (Biosource International), α-chemokine (protein)
chain: AELRCMCIKTTSGIHPKNIQSLEVIGKGTHCNQVEVIATLKDGRKICLDPDAPRIKKIVQKKLAGDESAD
In the case of B4, the “inhibition of 125I-mini TyrRS binding” value (PMNs [1]) is reported as “did not significantly inhibit the binding”.

B5: truncated mini TyrRS: recombinant truncated mini TyrRS comprising residues 1-344 of human full-length TyrRS (protein, UniProt P54577 1-344, looked up, fragment)
chain: MGDAPSPEEKLHLITRNLQEVLGEEKLKEILKERELKIYWGTATTGKPHVAYFVPMSKIADFLKAGCEVTILFADLHAYLDNMKAPWELLELRVSYYENVIKAMLESIGVPLEKLKFIKGTDYQLSKEYTLDVYRLSSVVTQHDSKKAGAEVVKQVEHPLLSGLLYPGLQALDEEYLKVDAQFGGIDQRKIFTFAEKYLPALGYSKRVHLMNPMVPGLTGSKMSSSEEESKIDLLDRKEDVKKKLKKAFCEPGNVENNGVLSFIKHVLFPLKSEFVILRDEKWGGNKTYTAYVDLEKDFAAEVVHPGDLKNSVEVALNKLLDPIREKFNTPALKKLASAAYPDP
In the case of B5, the “PMN chemotaxis (PMN migration)” value (PMNs [2]) is reported as “capable of functioning as a chemoattractant for PMNs” and the “MP chemotaxis (MP migration)” value (MPs) is reported as “not for MPs”.
